Data on eight molecules can be found in patent publication US20190270826A1 (Janssen / Centocor, published 2019).

Where a chain is given by its changes, count along the chain named.

First the molecules themselves.
B1: IC3B1 (bispecific antibody, human IgG4 S228P, kappa, lambda, F234A L235A)
heavy 1: EVQLVESGGGLVQPGGSLKLSCAASGFTFNTYAMNWVRQASGKGLEWVGRIRSKYNAYATYYAASVKGRFTISRDDSKNTAYLQMNSLKTEDTAVYYCTRHGNFGNSYVSWFAYWGQGTLVTVSSASTKGPSVFPLAPCSRSTSESTAALGCLVKDYFPEPVTVSWNSGALTSGVHTFPAVLQSSGLYSLSSVVTVPSSSLGTKTYTCNVDHKPSNTKVDKRVESKYGPPCPPCPAPEAAGGPSVFLFPPKPKDTLMISRTPEVTCVVVDVSQEDPEVQFNWYVDGVEVHNAKTKPREEQFNSTYRVVSVLTVLHQDWLNGKEYKCKVSNKGLPSSIEKTISKAKGQPREPQVYTLPPSQEEMTKNQVSLTCLVKGFYPSDIAVEWESNGQPENNYKTTPPVLDSDGSFLLYSKLTVDKSRWQEGNVFSCSVMHEALHNHYTQKSLSLSLGK
light 1: QAVVTQEPSLTVSPGGTVTLTCRSSTGAVTTSNYANWVQQKPGQAPRGLIGGTNKRAPGTPARFSGSLLGGKAALTLSGAQPEDEAEYYCALWYSNLWVFGGGTKLTVLGQPKAAPSVTLFPPSSEELQANKATLVCLISDFYPGAVTVAWKADSSPVKAGVETTTPSKQSNNKYAASSYLSLTPEQWKSHRSYSCQVTHEGSTVEKTVAPTECS
heavy 2: not shown
light 2: EIVLTQSPGTLSLSPGERATLSCRASQSISNDLNWYQQKPGKAPKLLIYYASSLQSGVPSRFSGSGSGTDFTLTINSLQPEDFATYYCQQSFTAPLTFGQGTKVEIKRTVAAPSVFIFPPSDEQLKSGTASVVCLLNNFYPREAKVQWKVDNALQSGNSQESVTEQDSKDSTYSLSSTLTLSKADYEKHKVYACEVTHQGLSSPVTKSFNRGEC
notes: IgG4-PAA, Fab arm exchange; also called IAPB47 x CD3B220
B2: IC3B8 (bispecific antibody, human IgG4 S228P, kappa, lambda, F234A L235A)
heavy 1: B1 heavy 1
light 1: B1 light 1
heavy 2: not shown
light 2: not shown
notes: IgG4-PAA, Fab arm exchange; also called IAPB23 x CD3B220
B3: IC3B12 (bispecific antibody, human IgG4 S228P, kappa, lambda, F234A L235A)
heavy 1: B1 heavy 1
light 1: B1 light 1
heavy 2: not shown
light 2: not shown
notes: IgG4-PAA, Fab arm exchange; also called IAPB55 x CD3B220
B4: IC3B9 (bispecific antibody, human IgG4 S228P, kappa, lambda, F234A L235A)
heavy 1: B1 heavy 1
light 1: B1 light 1
heavy 2: not shown
light 2: not shown
notes: IgG4-PAA, Fab arm exchange; also called IAPB25 x CD3B220
B5: IC3B4 (bispecific antibody, human IgG4 S228P, kappa, lambda, F234A L235A)
heavy 1: B1 heavy 1
light 1: B1 light 1
heavy 2: not shown
light 2: not shown
notes: IgG4-PAA, Fab arm exchange; also called IAPB61 x CD3B220
B6: IAPB55, 22A09 (hybridoma mAb, unpurified) (antibody, V domains shown)
VH: QLQLQESGPGLVKPSETLSLTCTVSGVSISSSTYYWGWLRQPPGMGLEWTGSIYFTGNTYYNPSLKSRVTISVDTSRNQFSLKLSSVTAADTAVYYCGSLFGDYGYFDYWGQGTLVTVSS
VL: EIVMTQSPATLSVSPGERATLSCRASQFISSNLAWYQQKPGQAPRLLIYGASTRATGIPARFSGSGSGTDFTLTISSLQSEDFAVYYCQQYNNWPFTFGPGTKVDIK
notes: OmniRat hybridoma product (rat constant region)
B7: IAPB61, 25D12 (hybridoma mAb, unpurified) (antibody, V domains shown)
VH: B6 VH
VL: B6 VL with S14P, F96S
notes: as for B6
B8: IAPB57, 5G08 (hybridoma mAb, unpurified) (antibody, V domains shown)
VH: QLQLQESGPGLVKPSETLSLTCTVSGGSISSSTYYWGWIRQPPGKGLEWIGSIYFTGSTDYNPSLKSRVSISVDTSKNQFSLKLSSVTAADTAVYYCAKEDDSSGYYSFDYWGQGNLVTVSS
VL: DIQLTQSPSFLSASVGDRVTITCRASQGISSYLAWYQQKPGKAPKLLIYAASTLQSGVPSRFSGSGSGTEFTLTISSLQPEDFATYYCQQVNSYPLTFGGGTKVEIK
notes: as for B6

In the first test the target is T1, human IL1RAP on cells (endogenous) (human, UniProt Q9NPH3 21-570).
T1 sequence (looked up): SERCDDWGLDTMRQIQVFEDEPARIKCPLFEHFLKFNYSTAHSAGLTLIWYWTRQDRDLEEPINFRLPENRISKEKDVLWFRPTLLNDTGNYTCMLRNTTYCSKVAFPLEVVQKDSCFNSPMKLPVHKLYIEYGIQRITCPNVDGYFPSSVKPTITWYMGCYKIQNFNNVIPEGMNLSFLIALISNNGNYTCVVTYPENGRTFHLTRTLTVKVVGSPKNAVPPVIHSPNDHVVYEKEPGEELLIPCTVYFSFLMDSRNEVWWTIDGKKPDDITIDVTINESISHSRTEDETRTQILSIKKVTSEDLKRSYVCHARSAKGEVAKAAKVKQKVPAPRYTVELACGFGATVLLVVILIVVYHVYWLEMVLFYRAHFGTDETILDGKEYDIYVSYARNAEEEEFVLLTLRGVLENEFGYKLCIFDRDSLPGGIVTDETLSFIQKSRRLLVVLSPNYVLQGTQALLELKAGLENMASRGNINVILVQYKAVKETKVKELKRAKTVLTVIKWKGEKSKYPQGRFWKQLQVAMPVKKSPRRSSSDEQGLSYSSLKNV
Kind of test: cell-based or functional assay.
Regarding B1, the “EC50, T-cell mediated cytotoxicity” value stood at 0.049 nM.

For B2, the “EC50, T-cell mediated cytotoxicity” value stood at 0.138 nM.

Take B3: the “EC50, T-cell mediated cytotoxicity” value was 1.3 nM.

Another test addresses T2, recombinant human IL1RAP ECD (human, UniProt Q9NPH3 21-367).
T2 construct: His-tagged; also called hIL1RAP-ECD; rhuIL1RAP
T2 sequence: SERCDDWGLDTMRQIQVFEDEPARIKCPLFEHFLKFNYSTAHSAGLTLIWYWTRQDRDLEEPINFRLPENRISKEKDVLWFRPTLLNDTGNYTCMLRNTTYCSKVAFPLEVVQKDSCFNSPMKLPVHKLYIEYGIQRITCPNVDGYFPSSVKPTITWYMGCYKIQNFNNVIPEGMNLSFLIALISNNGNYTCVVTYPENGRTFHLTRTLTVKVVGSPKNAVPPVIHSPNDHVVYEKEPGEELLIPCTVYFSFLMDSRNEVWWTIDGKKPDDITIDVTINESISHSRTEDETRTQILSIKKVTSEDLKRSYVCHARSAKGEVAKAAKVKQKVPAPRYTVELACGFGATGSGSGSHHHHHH
The test can be described thus: SPR. On the technique in general: SPR reads the build-up and loss of mass on a sensor chip optically.
Usually Kd stands for a measure of binding affinity in units of concentration. For orientation: koff means a measure of how fast the partners let go of each other. Broadly, the kon is the second-order rate constant of association. Turning to B1, the Kd was 1.09 nM, the koff was 0.000759 s⁻¹ and the kon was determined as 697000 M⁻¹ s⁻¹.

As to B4, the Kd was determined as 29.7 nM, the koff amounted to 0.0547 s⁻¹ and the kon stood at 1.84e+06 M⁻¹ s⁻¹.

For B5, the Kd turned out to be 11.2 nM, the koff came out at 0.0129 s⁻¹ and the kon is 1.15e+06 M⁻¹ s⁻¹.

For B2, the Kd was 9.96 nM, the off-rate (koff) was 0.00298 s⁻¹ and the kon turned out to be 300000 M⁻¹ s⁻¹.

Regarding B3, the Kd was 0.313 nM, the koff came to 0.000361 s⁻¹ and the on-rate constant (kon) worked out at 1.15e+06 M⁻¹ s⁻¹.

The target of a further test is T3, recombinant cyno IL1RAP ECD (cynomolgus monkey, UniProt P59822 21-367 (rhesus entry)).
T3 construct: also called rcynoIL1RAP
T3 sequence: T2 sequence with L183F, T273P, K326T
Kind of test: SPR.
For the molecule B1, the Kd amounted to 0.212 nM, the koff was found to be 0.000236 s⁻¹ and the kon came out at 1.11e+06 M⁻¹ s⁻¹.

In the case of B4, the Kd is 27.8 nM, the koff amounted to 0.053 s⁻¹ and the kon turned out to be 1.91e+06 M⁻¹ s⁻¹.

Regarding B5, the Kd is 10.2 nM, the koff came out at 0.0148 s⁻¹ and the kon is 1.46e+06 M⁻¹ s⁻¹.

B2: the Kd is 2.7 nM, the koff stood at 0.00121 s⁻¹ and the kon amounted to 448000 M⁻¹ s⁻¹.

Take B3: the Kd is 0.218 nM, the koff was found to be 0.000331 s⁻¹ and the kon stood at 1.52e+06 M⁻¹ s⁻¹.

In the next test the target is T2, recombinant human IL1RAP ECD. Kind of test: SPR, summary.
On to B1, for which the Kd is 1.09 nM.

As for B4, the Kd is 29.7 nM.

As for B5, the Kd came out at 11.2 nM.

Regarding B2, the Kd came out at 9.96 nM.

For B3, the Kd amounted to 0.313 nM.

The target of the next test is T3, recombinant cyno IL1RAP ECD. Kind of test: SPR, summary.
As to B1, the Kd was found to be 0.212 nM.

On to B4, for which the Kd amounted to 27.8 nM.

B5: the Kd was found to be 10.2 nM.

With B2, the Kd stood at 2.7 nM.

B3: the Kd came out at 0.218 nM.

A further test addresses T2, recombinant human IL1RAP ECD. Kind of test: SPR (ProteOn). How it is done: The rates of IL1RAP ECD association and dissociation were measured for each variant. The biosensor surface was prepared by covalently coupling Goat anti-Human IgG (Fc) to the surface of a GLC chip (BioRad) using the manufacturer instructions for amine-coupling chemistry. […] The RU immobilized also included a goat anti-mouse Fc antibody that was added to capture other antibodies not included in the ones reported here. Since the mixture was 1:1 about 50% of these RU immobilized are expected to be goat anti-human Fc. The kinetic experiments were performed at 25° C. in running buffer (PBS pH 7.4, 0.005% P20, 3 mM EDTA). […] (1:3) serial dilutions of human IL1RAP ECD, starting at 400 nM were prepared in running buffer. […] The reference spots (Goat anti-Human IgG (Fc)-modified surface) containing no candidate captured were used as a reference surface. Capture of mAb was followed by a 3 minute injection (association phase) of antigen at 40 μL/min, followed by 10 minutes of buffer flow (dissociation phase). […] Data was processed on the instrument software. Double reference subtraction of the data was performed by subtracting the curves generated by buffer injection from the reference-subtracted curves for analyte injections. Kinetic analysis of the data was performed using 1:1 Langmuir binding model with group fit.
For the molecule B6, the Kd worked out at 1.64 nM, the dissociation rate constant (koff) came to 0.000747 s⁻¹ and the kon came out at 454000 M⁻¹ s⁻¹.

Take B7: the Kd amounted to 17.5 nM, the koff was determined as 0.0142 s⁻¹ and the kon amounted to 810000 M⁻¹ s⁻¹.

In the case of B8, the Kd is 0.16 nM, the koff worked out at 0.000129 s⁻¹ and the kon came out at 807000 M⁻¹ s⁻¹.

The target is the same in the next test. Kind of test: SPR. The source holds these as a separate data set.
Consider B1, for which the Kd amounted to 1.09 nM.

In the case of B4, the Kd was 29.7 nM.

As for B5, the Kd stood at 11.2 nM.

Take B2: the Kd was 9.96 nM.

Turning to B3, the Kd amounted to 0.313 nM.

The target of a further test is T3, recombinant cyno IL1RAP ECD. Kind of test: SPR. The source holds these as a separate data set.
For B1, the Kd turned out to be 0.212 nM.

As to B4, the Kd was 27.8 nM.

As for B5, the Kd is 10.2 nM.

For the molecule B2, the Kd stood at 2.7 nM.

Consider B3, for which the Kd amounted to 0.218 nM.

Another test has as its target T2, recombinant human IL1RAP ECD. The test can be described thus: SPR; human KD over cyno KD.
Regarding B1, the “Hu/Cyno KD Ratio” value turned out to be 5.1.

As for B4, the “Hu/Cyno KD Ratio” value is 1.1.

Regarding B5, the “Hu/Cyno KD Ratio” value was determined as 1.1.

For the molecule B2, the “Hu/Cyno KD Ratio” value was found to be 3.7.

Consider B3, for which the “Hu/Cyno KD Ratio” value came to 1.4.
